Consider 1 molecule from PMC4837182, “Plasmodium falciparum Hsp70-z, an Hsp110 homologue, exhibits independent chaperone activity and interacts with Hsp70-1 in a nucleotide-dependent fashion” (Cell Stress & Chaperones, 2016).

For assay [1], the target named is T1, recombinant Plasmodium falciparum Hsp70-z (PfHsp70-z) (Plasmodium falciparum).
T1 construct: also called PfHsp110c; PfHsp110; not shown: His6, N-terminal, kept
As to the kind of experiment: SPR; ProteOn XPR36, ligand amine-coupled to GLC chip, analyte 125-2000 nM at 50 μl/min, PBS-Tween with 20 mM EDTA pH 7.4, 25 °C, Langmuir fit; with 5 mM ADP. Particulars: both partners purified. On the technique in general: SPR reads the build-up and loss of mass on a sensor chip optically.

Assay [2] has as its target T1, recombinant Plasmodium falciparum …. The assay can be described thus: SPR; ProteOn XPR36, ligand amine-coupled to GLC chip, analyte 125-2000 nM at 50 μl/min, PBS-Tween with 20 mM EDTA pH 7.4, 25 °C, Langmuir fit; with 5 mM ATP. Particulars: both partners purified.

B1: nucleotide binding domain of PfHsp70-1 (PfHsp70-1NBD) (domain or fragment)
chain: not shown
modifications: assayed without nucleotide or with ADP/ATP; N-terminal His6 tag from pQE30 left out. Locus PF3D7_0818900 (cytosolic PfHsp70-1, UniProt Q8IB24) is from memory, not given; NBD limits are
In the case of B1, in assay [1], the Kd came to 98.6 nM, the koff worked out at 0.00026 s⁻¹ and the kon was 2630 M⁻¹ s⁻¹. In assay [2], the dissociation constant (Kd) is 2.12 nM, the off-rate constant (koff) came to 9.43e-06 s⁻¹ and the kon is 4460 M⁻¹ s⁻¹.

What is called Kd is a measure of binding affinity in units of concentration. By koff is commonly meant a measure of how fast the partners let go of each other. By kon is commonly meant a measure of how fast the partners come together.
